# Assay results: the DeepSol protein solubility set
# Experiment: soluble on expression in E. coli; label from the status in PepcDB or PDB records
row,Sequence,soluble on expression in E. coli
1,MRLHPRTEAAKESIFPRMSGLAQRLGAVNLGQGFPSNPPPPFLLEAVRRALGRQDQYAPPAGLPALREALAEEFAVEPESVVVTSGATEALYVLLQSLVGPGDEVVVLEPFFDVYLPDAFLAGAKARLVRLDLTPEGFRLDLSALEKALTPRTRALLLNTPMNPTGLVFGERELEAIARLARAHDLFLISDEVYDELYYGERPRRLREFAPERTFTVGSAGKRLEATGYRVGWIVGPKEFMPRLAGMRQWTSFSAPTPLQAGVAEALKLARREGFYEALREGYRRRRDLLAGGLRAMGLRVYVPEGTYFLMAELPGWDAFRLVEEARVALIPASAFYLEDPPKDLFRFAFCKTEEELHLALERLGRVVNSPREAEGGAVSG,soluble
2,MRMPASMEPDWKALLRVLRAHSATFYLGSLLFPKEARKGAWAVYAACRLGDEAVDGEGGGPEALEAWCSGVERAYRGRPLAEWEKGLAWALERWDIPFEAFLHMREGFQTDLGPVRLGTEAELLRYCYQVAGTVGRMMAPIAGGGKEAEARAVKLGQAMQLTNILRDVGEDLGRDRVYLPSELLKAYGVRLSDLEAGRITPEYRALMAHLEGKARALYREGLAGLGHLKVGRAAIALAALQYRGILDKLRLSGYDNLGRRAHLKAWERALLLPKAFLAARFPPRPEGSP,soluble
3,MRPDAVMIFAAGFGTRMGALTATRPKPMIEVAGRPLIDHALALAEAAGISRIVANTHYLPESLTAHLAGRALVSHEEEILETGGGLCRALPLLGEGPVYTLNSDAVWTGENPLDELAAGWREGMEALLLLAPSGCAPGDFTMDAAGRLARARGAPGYTYLGAQILRTDRLAGVAEAKFSLNLVWDAMIAAGTAHGLIHRGGWCDVGRPEGIAAAEAMLANVLEHHHHHH,not soluble
4,MRPGGYPKGVQARAWVEVDLAALWANYRLLAGRAGGEVIPVLKADAYGHGALPLARFLEGKGVGRFAVATLEEGRRLREGGIKGEVLLLGSLHPLEAEEALRLGLVPTLSNLEAAEALSQRARALGLVPRAHLKVDTGMNRVGFPSEEAVSALRAVEALGVRVEGVYTHLATAGEDAAFVETQRRRFQEVRRALGEGYFYHLENSLGLLRHGATAGVRVGLALYGLVPGFGLRPILRILARPTLVKRLKAGDRVGYGGVYVARGGEWLATLPVGYADGLPWGAVRFVKGPDGRLLEVAGRISMDQTTVLLPGPVGLEAVFEVLSADFGPTGLLAWAEARGTLPYEVAVHLSRRLPRRYLE,soluble
5,MRPSAIVLAGGKEAWAERFGVGSKALVPYRGRPMVEWVLEALYAAGLSPVYVGENPGLVPAPALTLPDRGGLLENLEQALEHVEGRVLVATGDIPHLTEEAVRFVLDKAPEAALVYPIVPKEAVEARFPRTKRTYARLREGTFTGGNLLLLDKSLFRKALPLARRVVALRKRPLALARLVGWDVLLKLLLGRLSLAEVEARAQRILGVEARALVTPYPEVGVDVDREEDLVS,soluble
6,MRPSGRMENKKQSKGASRGSRRRSINTSNSNTSARHAFSPCSYSSSGTEIRKVAISVSSNSTTELPCAQSPNVGSRTSDSHQLTLGSDLRSEPNNLNIAATLAEPNIAEHFKGVLTKKEAANLTRRDDFTMYYRVVKDQAKVELETTIPLFICYRNSENKVFSFRVEQVLTENNSMWWTVMINKQHTQMFRRLLDLVRCYHSYRFINPETRSQEMFPIWKYTNQASMNP,not soluble
7,MRQATRKGLMTMAAATGVIAAAGGAAHADSGAHGTSSGSPGVLSGNTVQAPVHVPVNVCGNTVDVVGVLNPAMGNACANQGGGASGGHGGHGGHGGYGDSGGEGGSHGGSHAGGHATDSPGVGSGNHVEVPIDVPVNVCGNSIDVVGALNPTTGNDCGNGGGGDHSTPPGDHETPPGEPHNPGNPGNPDTPDKPSGPDDETPGDSTDGNRPGAQTVDQPRGDAALAETGSDLPLGLALPVGAGALLAGTVLYRKARASVLEHHHHHH,not soluble
8,MRQRIAVVGGGPAGLAFARVMHRHDRSVTVLERDPAPDARPPGGTLDLHEGLGRLAMDKAGLSAEFEALSRPEGQAMRILDTDGTVLRDWRPDPAERANPEIDRGQLRDLLLGPLDVRWGQGVTKVVPGGRDGVLVHFEDGRQEAFDLVVGADGAWSRTRPAVSPVTPHYTGVTSVETSLDDVDTRHPDLARLVGDGSVAVYGVNRAVVAQRNSGGHVKVHAQFRAPLDWHAHLDLGDAEAVRSRLLTLFDGWTAPVLDLLRHGTGFVHRPLHVLPVSHTWTHVPGVTLLGDAAHLMPPLGAGANLALLEGAELAESLADGSADPDDAVRAFEERMWARAGRWAKITAAGLERLVSPDPAAALAVFDQVQPSRLEHHHHHH,not soluble
9,MRQRSSYPKPFKAQVVQECLQPGATVSSVAINHGINANVIRKWLPLYRDLPAAASLPAFVPLKAAPKRPVEASVIIELPVAGQVITVKWPASDPEGCAQFIRAFAQLEHHHHHH,not soluble
10,MRRDYMSVYDYPVPTTPWLNTAPGLFIDDYTSTASSTVSSLSRTLIYDYEQNPDSGNNVVALAAKAGYSTWWISNQGKLGEHDTRISVIASDAEHATFLKKGSFASRKTDDKLLLQETERALADTSSPKIIFLHMMGSHPNPCDSLNSLEHHHHHH,not soluble
11,MRRIITMTVNNRPGVLNRITGLFTKRHYNIESITVGHTEIEGISRMTFVVNVDDERTAEQIIKQLNKQIDVLKVNDITDQAIVARELALIKVAAPPAVRQEIYTLIEPFRASIVDVSKDSLVIQVTGEPEKVEALIELLRPYGIKEVARTGTTAFTRGAQKATTNQKTAFII,not soluble
12,MRRKNLFWDDVYKGTPPWDLDHPQPAFEALIKNGEIKPGRALDIGCGRGENAIILAMNGCDVIGIDLAENAISDAKAKATERHVKVKFVVEDALQMNRLFEEGEFDVVIDSGLFHVMMDEQRRVFAQQVHRVLREGGKYFMLCFSDKEPGEYELPRRLSKAEIESTFSPVFDITYIKEAVFDSLLSPSRRKAYLLSATRSLEHHHHHH,not soluble
13,MRRQRRSITDIICENCNYLPTKRSRNKRKPIPKESDVKTFNYTAHLWDIRWLRERARKTR,not soluble
14,MRRRVGLGAIQQQKLAAEKYKDKGTDLQENQLEQMTKQMEVFRVKLEEFAMKHKEDIRKNSQFRKQFQEMCAAIGVDPLATGKGFWSVLGMGDFYYELGVQVVEVCLAANHKTGGLMELDDLRRRLIAARGQSSVHQEITKEDILMAAKKLSIFGNGFVVHKLGKGKYIVQSIPGELSMEETNILNAASNTEQGCVTQSQLIKDLGWTDYRAQQSLDKVLGEGLCWIDKQAGDEPAYWFPSLFPGRNAQTTAATAAAAAALEHHHHHH,not soluble
15,MRRTTRYPVSGESSLWNVYKTVSFWKVMKNFIIIQIARYTPFLSVKNWLYRTFLRMKVGKKTSFALMVMPDIMFPEKITVGDNSIIGYNTTLLAHEYLIREYRLGEIVIGNEVMIGANTTILPGVRIGDGAIVSAGTLVHKDVPSGAFVGGNPMRVIYTKEQMEAREGSY,not soluble
16,MRSAIAAPILFLLVSFFVQECESVGFAPELYCGLENCYDVLEVNREEFDKQKLAKAYRALARKHHPDRVKNKEEKLLAEERFRVIATAYETLKDDEAKTNYDYYLDHPDQRFYNYYQYYRLRAAPKVDL,not soluble
17,MRTEGRLVRANLPLNLPSPTMRYMTPQRFGMGGTQIGNIFAPISDEQADLVLQAAWNAGVRLYDTSPFYGFGLSEYRLGRFLRGKDPADYVISTKVGRVLTAAGGARQDHAIWKSPAPFNYRYDYTAAGARRSVEDSLQRLGLPRIDIVFIHDLSPDNTELEGGWEAAYRIARTGAMVELEKMRDEGLIKAWGFGVNTPNAVVQAMGSDDPTPDIVLLACQYSLIDHSEALRNTFPALHRKGTSVVVGTPLNDGFLGGRNRYNFSLELPAGAVEKRKRIMAVAARHGIDIHTAALQFAAAHPQVSAIIPGARSPGQVMSNVQAMKVGIPAAFWAELKSQSLMDAQAPVPS,not soluble
18,MRTISFFNNKGGVGKTTLSTNVAHYFALQGKRVLYVDCDPQCNATQLMLTEEQTESIYLDGLNDEVAERNSLAKTVYAIFVPLREGESQIAAEITPMRSERFGVDVLPGHPALSQIEDLMSDSWQSALGRQTGPFRRIHWAGQLAHAMERDDRYDVIFFDVGPSLGPFNRTVLLGCDAFVTPTATDLFSFHAFGNLARWFDAWVTQYAEIHEGNMAEWKKYSADVEAKTRPLRLGGFDGEGLRYLGYTTLEYVKRRANGQEQLVGAFERFRGRFAAEAERISNSLSKHSNSTLLGHVPHMHSMPATAQDVHAPIMELSSSDRVRGAQINQRNAYAEKINSVAANVYKALFPNELEHHHHHH,soluble
19,MRTPLSSVSPQLVQRFHELGFTPSSIRNFLGRPGFAAISRGEPASVLYAMRENEDSDFYPLIATFILHRPVAAEALHRVLGGSLTDQLTETGVLEIVDASKAYLTAKIDIRWLELEDDLFWVFSDTDASMIADHVPGKDHVLGVGAASLSL,not soluble
20,MRTQNDLDRRLRSFGGRDGQMTTLSVRRLPVENGISGWEAISKRSKPVRRLEGDVTADWLIIGAGFAGLSAARRLTQLHPGETIVVLDASEVGKGTSGRNSGFMIDVPHNLASSEYSSGAIDATRLEMEQNRSAIAFAAAAAEDYGMSRQTFDPAGKINAAATRRGMTLNQNFAASLKNAGEKHTLLDAAQMRALTGSDYYLGGLYTPGAVLIQPADYIREFAAGLSPKVDIFENSPVTALRRENRAWKATTPSGSVTAPKVILGVNGHVDDFGHFRGRLIHIFAYASMTAPFAARDYGSRVSGQDKWALLPADAMGATVRKITSDGQSRIAIRTRYTYETTLDLTKHQLSKMVRAHRRSLDDRFPGLGGIPFEYSWSGRICLSLNHVPAFGEIEEGLFSACCENGLGTVKSTLAGMMAAELATGTTSRHLEQYMDHPAPSRLPPEPFAWLGINSVIRLQELRAGREGLEHHHHHH,not soluble
21,MRVAFFGTPLWAVPVLDALRKRHQVVLVVSQPDKPQGRGLRPAPSPVARYAEAEGLPLLRPARLREEAFLEALRQAAPEVAVVAAYGKLIPKEALDIPPHGFLNLHPSLLPKYRGAAPVQRALLAGERETGVSIMRLDEGLDTGPLYAVWRTPILPDEDAVALGNRLRDKGVELLLEVLERLPELTPRPQEGEASYAPPLSKEEGRLDFGESAEALYRRHRAVQPWPGSYFFHRGQRVKALRLRPEPGEGEPGVVARVGPEGVVVGTASGLLLLLEVQPEGRRAMPAADWARGYGVAPGTRLGQV,soluble
22,MRVEDVMVTDVDTIDITASLEDVLRNYVENAKGSSVVVKEGVRVGIVTTWDVLEAIAEGDDLAEVKVWEVMERDLVTISPRATIKEAAEKMVKNVVWRLLVEEDDEIIGVISATDILRAKMAKRY,soluble
23,MRVLVSGGGTGGHIYPALALIREIKKLNPEARFLYIGTENGLESTIVPKAGIPFQSIVISGFKRKISLDNVKTVMRFLKGVQDSKRYIRRFNPDIVIGTGGYVCGPVVYAAAKLGIPTIVHEQNSVPGVTNKFLSRYVDKVAVCFEAAAEHFPQSKVVMTGNPRASEVMDQNGMKGKRSVGLSLPKKSVLIFGGSRGARPINDAFVEAIEQFGNKSYEILYVTGEVHYDKVMEAVKQKGNPNNVIIKPFIHNMPEVLTGVDLVVSRAGATTLAELTALGKPSVLIPSPYVTNNHQEKNARSVVDKGAAKMLLEKDLTAETLIRDIDEILLDAQTLQNMKLAAGQLGIPDAANKLYEVMNKLVKK,not soluble
24,MRVRIVGAPSLLVGVISDTHDNLALARRAGEIFARERVEAVIHLGDYVAPFTLAELLGVVGGKAVFYGVFGNNDGERLGLSRVAGGFGASLLDPPATVSIGGRRLLLLHGFGSPENTVELVDALASSGRWDAVLYGHTHKARVERVGGSLVLNPGDGGGSLEKPSAAILDLESMEARLVSLEGAAALEHHHHHH,not soluble
